For one substance, percent inhibition of aggregation of α-syn monomer seeded by m2, cell-free ThT fluorescence and percent inhibition of intracellular α-syn aggregation in rat cortical neurons exposed to seeds (0.14 μM), HTRF aggregate assay results are on record in PMC11763338.

This assay deals with recombinant human α-synuclein protein seeds (human) (UniProt P37840).

R18D (18-mer of D-arginine) (peptide): the percent inhibition of aggregation of α-syn monomer seeded by m2, cell-free ThT fluorescence at 24 h; R18D 0.05-0.25 μM pre-incubated with the seeds came to 62.1% and the percent inhibition of intracellular α-syn aggregation in rat cortical neurons exposed to seeds (0.14 μM), HTRF aggregate assay at 48 h; R18D 0.0625-0.5 μM added 2 h after the seeds came out at 37.8%.
